This is an account of results in US20260062447A1 (UNIVERSITY OF SOUTHAMPTON, published 2026).

Test [1] concerns the target HIF-1 three-domain protein. The experiment in a line: cell-based or functional assay.
The target of test [2] is T1, HIF-1α PAS-B domain (UniProt Q16665 238-349, limits assumed, labelled for MST (label not named)).
T1 construct: domain: PAS-B; 25 nM labelled protein in the assay; also called HIF-1α PAS-B protein; labelled HIF-1α PAS-B
The experiment in a line: MST (microscale thermophoresis), labelled HIF-1α PAS-B [part 3 of 14) B].
Experimental: (§1) An aliquot of labelled HIF-1α PAS-B was thawed on ice and diluted to 50 nM with HIF MST assay buffer, before being centrifuged at 12,000 rpm for 15 minutes. […] Samples were loaded into NanoTemper® Monolith NT.115 premium treated capillaries and measurements were carried out using a Monolith NT.115 system at 25° C. using 50% MST power and 50% LED power. Data was analysed by NanoTemper® analysis software. Binding curves were fitted using GraphPad Prism 8 software.

The target in test [3] is T1, HIF-1α PAS-B domain. Description: MST (microscale thermophoresis), labelled HIF-1α PAS-B [part 4 of 5]. On the technique in general: MST reads how a fluorescent partner responds to local heating, with and without ligand.
Experimental: as §1
For test [4], the target named is T1, HIF-1α PAS-B domain. Description: MST (microscale thermophoresis), labelled HIF-1α PAS-B [part 3 of 5].
Experimental: as §1

T1 sequence (Q16665 238-349 limits assumed): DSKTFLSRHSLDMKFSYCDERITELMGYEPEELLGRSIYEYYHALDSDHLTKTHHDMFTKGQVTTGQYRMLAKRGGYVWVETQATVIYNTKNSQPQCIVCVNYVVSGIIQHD

B1: cyclo-CLLFVY (Cys leu leu phe val tyr) (peptide)
peptide: CLLFVY
modifications: cyclic peptide (cyclo-)
Take B1: in test [1], the “IC50 of inhibition of FAM-HRE DNA binding (fluorescence polarization)” value is 76.5 µM.

B2: Cyclo-CLLYVY (peptide)
cyclic peptide: CLLYVY
modifications: cyclic (cyclo-) peptide
notes: also called Y derivative at the phenylalanine position; Cys leu leu tyr val tyr
One may read the Kd as the equilibrium constant for the complex coming apart. High values mean lower affinity, low ones higher affinity. For the molecule B2, in the test with HIF-1α PAS-B domain [2], the Kd is > 200 µM.

B3: cyclic peptide Met leu leu phe val tyr (peptide)
peptide: MLLFVY
modifications: cyclic peptide
notes: Comparative purposes only; also called M (methionine) cysteine derivative
Turning to B3, the binding result with HIF-1α PAS-B domain [3] is “no binding”.

B4: cyclic peptide Ser leu leu phe val tyr (peptide)
peptide: SLLFVY
modifications: cyclic peptide
notes: Comparative purposes only; also called S (serine) cysteine derivative
As to B4, the binding result with HIF-1α PAS-B domain [4] is reported as “no binding”.

B5: cyclic peptide Thr leu leu phe val tyr (peptide)
peptide: TLLFVY
modifications: cyclic peptide
notes: Comparative purposes only; also called T (threonine) cysteine derivative
As for B5, the binding result in the test with HIF-1α PAS-B domain [4] is on record as “no binding”.
